Assay results published in WO2010028798A1 (dated 2010).

B1: AA-2320 (antibody)
chain 1: EVKLVESGGGLVKPGGSLKLSCAASGFTFSTYAMSWVRQTPEKRLEWVASISTGDNTYYTDSVRGRFTISRDNARNILYLQMSSLRSEDTAMYFCTRGRGDRGDLFGYWGQGTLVTVSS
chain 2: GGGGSGGGGSEVKLVESGGGLVKPGGSLKLSCAASGFTFSTYAMSWVRQTPEKRLEWVASISTGDNTYYTDSVRGRFTISRDNARNILYLQMSSLRSEDTAMYFCTRGRGDRGDLFGYWGQGTLVTVSSGGGGSGGGGSGGGGSDIVMSQSPSSLAVSVGEKVTMSCKSSQSLLYRGNQMNYLAWYQQKPGQSPKLLIYWASTRESGVPDRFTGSGSGTEFTLTISSVKAEDLTVYYCQQYYTYPRTFGGGTKLEIKR
chain 3: DIVMSQSPSSLAVSVGEKVTMSCKSSQSLLYRGNQMNYLAWYQQKPGQSPKLLIYWASTRESGVPDRFTGSGSGTEFTLTISSVKAEDLTVYYCQQYYTYPRTFGGGTKLEIKR
B2: AN-1000 (antibody, V domains shown)
VH: B1 chain 1
VL: B1 chain 3

Target: human CCR5 (human, UniProt P51681 1-352)
Assay: cell-based or functional assay

Sequence of human CCR5 (P51681 whole entry): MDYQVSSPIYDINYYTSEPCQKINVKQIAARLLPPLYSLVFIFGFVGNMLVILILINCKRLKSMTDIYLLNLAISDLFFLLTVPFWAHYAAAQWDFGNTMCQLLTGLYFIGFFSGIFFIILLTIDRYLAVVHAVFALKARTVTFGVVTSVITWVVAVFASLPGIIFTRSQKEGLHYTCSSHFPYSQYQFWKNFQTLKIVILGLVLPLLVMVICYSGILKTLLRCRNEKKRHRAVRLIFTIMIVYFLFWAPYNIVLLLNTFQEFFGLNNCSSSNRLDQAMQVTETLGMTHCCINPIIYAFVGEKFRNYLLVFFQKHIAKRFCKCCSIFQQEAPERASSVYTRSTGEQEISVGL

Binder | IC50, antiviral assay in PBMC (HIV-1 NLBal, p24 ELISA) [nM]
B1 | 0.088
B2 | 0.988
